Source: patent US20170137520A1 (Merck Sharp & Dohme, published 2017)
Numbering of substitutions follows the chain as printed. Numbers in names are those of the source.

B1: F023700906 Nanobody, CTLA4 binder 11F01 (L11V,A14P,Q45R,A74S,K83R,V89L,M96P,Q108L)-FLAG3-HIS6 (VHH)
VHH: EVQLVESGGGVVQPGGSLRLSCAASGGTFSFYGMGWFRQAPGKEREFVADIRTSAGRTYYADSVKGRFTISRDNSKNTVYLQMNSLRPEDTALYYCAAEPSGISGWDYWGQGTLVTVSS
notes: also called F02370906; Nb F023700906
B2: F023701061 [11F01 (L11V,A14P,Q45R,N73Y,A74S,K83R,V89L,M96P,Q108L)-FLAG3-HIS6] (VHH, name in Kabat numbering)
VHH: B1 VHH with N74Y
notes: N73 is Kabat numbering
B3: F023701054 [11F01 (L11V,A14P,Q45R,N73T,A74S,K83R,V89L,M96P,Q108L)-FLAG3-HIS6] (VHH, name in Kabat numbering)
VHH: B1 VHH with N74T
notes: N73 is Kabat numbering
B4: F023701051 [11F01 (L11V,A14P,Q45R,N73Q,A74S,K83R,V89L,M96P,Q108L)-FLAG3-HIS6] (VHH, name in Kabat numbering)
VHH: B1 VHH with N74Q
notes: N73 is Kabat numbering; also called F02371051

Columns and labels:
[1] = target: T1, Human CTLA-4-Fc (human, UniProt P16410 37-162, limits assumed); experiment: kinetic binding analysis on CTLA4-hFc; method not stated
T1 construct: also called human CTLA4-hFc; CTLA-4-Fc fusion molecule from human; not shown: human Fc (hFc)
T1 sequence: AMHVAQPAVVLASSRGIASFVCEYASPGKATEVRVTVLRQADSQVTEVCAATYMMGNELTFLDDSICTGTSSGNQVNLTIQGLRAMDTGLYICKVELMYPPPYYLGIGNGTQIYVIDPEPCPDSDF
Protocol: (§1) On-rate, off-rate and affinity were determined using human and cynomolgus monkey CTLA4-hFc (Table below).

[2] = target: T2, Cynomolgus CTLA-4-Fc (cynomolgus monkey, UniProt G7PL88 37-162); experiment: as above
T2 construct: also called cynomolgus monkey CTLA4-hFc; not shown: human Fc (hFc)
T2 sequence: T1 sequence with S13N, I17T, L105M
Protocol: as §1

[3] = target: T3, human CTLA-4 expressed on cell surface (hCTLA4-overexpressing CHO-K1 cells) (human, UniProt P16410 36-223); experiment: competition flow cytometry (cFACS) on CHO-K1 hCTLA4 cells against a fixed concentration (EC30) of hCD80-hFc; MedianFI (PE)
T3 construct: The construct expressed in the cells is not described further; also called huCTLA-4+ CHO-K cells; CTLA-4+ CHO-K1 cells
T3 sequence: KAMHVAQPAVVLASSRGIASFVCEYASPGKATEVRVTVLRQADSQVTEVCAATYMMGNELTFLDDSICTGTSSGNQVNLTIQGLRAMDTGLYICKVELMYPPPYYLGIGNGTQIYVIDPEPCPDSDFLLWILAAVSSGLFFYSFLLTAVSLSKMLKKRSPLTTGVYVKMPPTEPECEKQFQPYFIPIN

[4] = target: T3, human CTLA-4 expressed on cell surface …; experiment: competition flow cytometry (cFACS) on CHO-K1 hCTLA4 cells against a fixed concentration (EC30) of hCD86-hFc; MedianFI (PE)
[5] = target: T3, human CTLA-4 expressed on cell surface …; experiment: competition flow cytometry (cFACS) on CHO-K1 hCTLA4 cells against a fixed concentration (EC30) of hCD80-hFc; bound ligand detected via its human IgG Fc; MedianFI (PE)
Source text: (§2) F023700906, a building block of F023700925, as well as F023701051, F023701054 and F023701061 blocked binding of human CTLA-4 to its ligands CD80 and CD86. Flow cytometry analysis of discovery batches of N73X variants (filled squares, filled triangles, filled triangles upside-down) of Nb F023700906 (filled circles) with fixed concentrations (EC30) of (A) hCD80-hFc or (B) hCD86-hFc on hCTLA4-overexpressing CHO-K1 cells. The ligands were detected via the human IgG Fc fusion protein. The flow cytometry data generated in this experiment are in FIG. 10 (A-B).

[6] = target: T3, human CTLA-4 expressed on cell surface …; experiment: competition flow cytometry (cFACS) on CHO-K1 hCTLA4 cells against a fixed concentration (EC30) of hCD86-hFc; bound ligand detected via its human IgG Fc; MedianFI (PE)
Source text: as §2

| Binder | Kd [1] | koff [1] | kon [1] | Kd [2] | koff [2] | kon [2] | IC50 (read off the curve) [3] | IC50 (read off the curve) [4] | IC50 (read off the curve) [5] | IC50 (read off the curve) [6] |
| --- | --- | --- | --- | --- | --- | --- | --- | --- | --- | --- |
| B1 | 1.2 nM | 0.0059 s⁻¹ | 4.8e+06 M⁻¹ s⁻¹ | 1.2 nM | 0.0057 s⁻¹ | 4.7e+06 M⁻¹ s⁻¹ | ~10 nM | ~2 nM | ~10 nM | ~2 nM |
| B2 | – | – | – | – | – | – | ~10 nM | ~2 nM | ~10 nM | ~2 nM |
| B3 | – | – | – | – | – | – | ~10 nM | ~2 nM | ~10 nM | ~2 nM |
| B4 | – | – | – | – | – | – | ~10 nM | ~2 nM | ~10 nM | ~2 nM |
